In the Human Domainome abundance scans (Beltran et al. 2025):
± gives the uncertainty stated by the source.

Test: abundance fitness (aPCA) (normalised: wild type 0, dead -1); higher = more abundant; growth selection in yeast, the domain comes from the species named
Settings: Homo sapiens

**Q.** Which abundance fitness does the source give for “E3 ubiquitin-protein ligase NEDD4-like L226P, Q96PU5” here?
**A.** 0.104 ± 0.059

**Q.** With “E3 ubiquitin-protein ligase NEDD4-like L226R, Q96PU5” as the substance, how does the abundance fitness read?
**A.** -0.007 ± 0.065

**Q.** Which abundance fitness does the source give for “E3 ubiquitin-protein ligase NEDD4-like L226S, Q96PU5” here?
**A.** 0.034 ± 0.07

**Q.** For “E3 ubiquitin-protein ligase NEDD4-like L226V, Q96PU5”, which abundance fitness is on record?
**A.** -0.11 ± 0.063

**Q.** Which abundance fitness does the source give for “E3 ubiquitin-protein ligase NEDD4-like L226W, Q96PU5” here?
**A.** -0.309 ± 0.069

**Q.** For “E3 ubiquitin-protein ligase NEDD4-like L226Y, Q96PU5”, which abundance fitness is on record?
**A.** -0.043 ± 0.091

**Q.** Which abundance fitness does the source give for “E3 ubiquitin-protein ligase NEDD4-like M227A, Q96PU5” here?
**A.** -0.077 ± 0.064

**Q.** For “E3 ubiquitin-protein ligase NEDD4-like M227C, Q96PU5”, which abundance fitness is on record?
**A.** -0.05 ± 0.059

**Q.** For “E3 ubiquitin-protein ligase NEDD4-like M227D, Q96PU5”, which abundance fitness is on record?
**A.** 0.065 ± 0.12

**Q.** For “E3 ubiquitin-protein ligase NEDD4-like M227G, Q96PU5”, which abundance fitness is on record?
**A.** -0.039 ± 0.064

**Q.** For “E3 ubiquitin-protein ligase NEDD4-like M227H, Q96PU5”, which abundance fitness is on record?
**A.** 0.092 ± 0.077

**Q.** Which abundance fitness does the source give for “E3 ubiquitin-protein ligase NEDD4-like M227I, Q96PU5” here?
**A.** -0.135 ± 0.073

**Q.** Which abundance fitness does the source give for “E3 ubiquitin-protein ligase NEDD4-like M227K, Q96PU5” here?
**A.** -0.015 ± 0.093

**Q.** Which abundance fitness does the source give for “E3 ubiquitin-protein ligase NEDD4-like M227L, Q96PU5” here?
**A.** -0.027 ± 0.067

**Q.** Which abundance fitness does the source give for “E3 ubiquitin-protein ligase NEDD4-like M227N, Q96PU5” here?
**A.** -0.024 ± 0.099

**Q.** With “E3 ubiquitin-protein ligase NEDD4-like M227P, Q96PU5” as the substance, how does the abundance fitness read?
**A.** 0.145 ± 0.09

**Q.** Which abundance fitness does the source give for “E3 ubiquitin-protein ligase NEDD4-like M227Q, Q96PU5” here?
**A.** -0.068 ± 0.1

**Q.** With “E3 ubiquitin-protein ligase NEDD4-like M227R, Q96PU5” as the substance, how does the abundance fitness read?
**A.** 0.001 ± 0.054

**Q.** For “E3 ubiquitin-protein ligase NEDD4-like M227S, Q96PU5”, which abundance fitness is on record?
**A.** 0.055 ± 0.063

**Q.** For “E3 ubiquitin-protein ligase NEDD4-like M227T, Q96PU5”, which abundance fitness is on record?
**A.** -0.022 ± 0.089

**Q.** With “E3 ubiquitin-protein ligase NEDD4-like M227V, Q96PU5” as the substance, how does the abundance fitness read?
**A.** -0.285 ± 0.068

**Q.** With “E3 ubiquitin-protein ligase NEDD4-like M227W, Q96PU5” as the substance, how does the abundance fitness read?
**A.** -0.313 ± 0.07

**Q.** With “E3 ubiquitin-protein ligase NEDD4-like M227Y, Q96PU5” as the substance, how does the abundance fitness read?
**A.** -0.184 ± 0.082

**Q.** Which abundance fitness does the source give for “E3 ubiquitin-protein ligase NEDD4-like N205A, Q96PU5” here?
**A.** -0.057 ± 0.06

**Q.** Which abundance fitness does the source give for “E3 ubiquitin-protein ligase NEDD4-like N205C, Q96PU5” here?
**A.** -0.142 ± 0.059

**Q.** Which abundance fitness does the source give for “E3 ubiquitin-protein ligase NEDD4-like N205D, Q96PU5” here?
**A.** -0.085 ± 0.07

**Q.** Which abundance fitness does the source give for “E3 ubiquitin-protein ligase NEDD4-like N205E, Q96PU5” here?
**A.** -0.105 ± 0.05

**Q.** With “E3 ubiquitin-protein ligase NEDD4-like N205F, Q96PU5” as the substance, how does the abundance fitness read?
**A.** -0.544 ± 0.11

**Q.** With “E3 ubiquitin-protein ligase NEDD4-like N205G, Q96PU5” as the substance, how does the abundance fitness read?
**A.** -0.321 ± 0.054

**Q.** Which abundance fitness does the source give for “E3 ubiquitin-protein ligase NEDD4-like N205H, Q96PU5” here?
**A.** -0.062 ± 0.11

**Q.** With “E3 ubiquitin-protein ligase NEDD4-like N205I, Q96PU5” as the substance, how does the abundance fitness read?
**A.** -0.111 ± 0.098

**Q.** For “E3 ubiquitin-protein ligase NEDD4-like N205K, Q96PU5”, which abundance fitness is on record?
**A.** 0.033 ± 0.097

**Q.** With “E3 ubiquitin-protein ligase NEDD4-like N205L, Q96PU5” as the substance, how does the abundance fitness read?
**A.** -0.196 ± 0.07

**Q.** For “E3 ubiquitin-protein ligase NEDD4-like N205M, Q96PU5”, which abundance fitness is on record?
**A.** -0.109 ± 0.055

**Q.** Which abundance fitness does the source give for “E3 ubiquitin-protein ligase NEDD4-like N205P, Q96PU5” here?
**A.** -0.012 ± 0.093

**Q.** Which abundance fitness does the source give for “E3 ubiquitin-protein ligase NEDD4-like N205Q, Q96PU5” here?
**A.** -0.087 ± 0.069

**Q.** For “E3 ubiquitin-protein ligase NEDD4-like N205R, Q96PU5”, which abundance fitness is on record?
**A.** -0.013 ± 0.054

**Q.** Which abundance fitness does the source give for “E3 ubiquitin-protein ligase NEDD4-like N205T, Q96PU5” here?
**A.** 0.029 ± 0.092

**Q.** With “E3 ubiquitin-protein ligase NEDD4-like N205V, Q96PU5” as the substance, how does the abundance fitness read?
**A.** -0.232 ± 0.068

**Q.** For “E3 ubiquitin-protein ligase NEDD4-like N205Y, Q96PU5”, which abundance fitness is on record?
**A.** 0.049 ± 0.094

**Q.** With “E3 ubiquitin-protein ligase NEDD4-like N213A, Q96PU5” as the substance, how does the abundance fitness read?
**A.** -0.382 ± 0.071

**Q.** For “E3 ubiquitin-protein ligase NEDD4-like N213C, Q96PU5”, which abundance fitness is on record?
**A.** -0.042 ± 0.14

**Q.** Which abundance fitness does the source give for “E3 ubiquitin-protein ligase NEDD4-like N213D, Q96PU5” here?
**A.** -0.206 ± 0.075

**Q.** For “E3 ubiquitin-protein ligase NEDD4-like N213E, Q96PU5”, which abundance fitness is on record?
**A.** -0.404 ± 0.11

**Q.** Which abundance fitness does the source give for “E3 ubiquitin-protein ligase NEDD4-like N213F, Q96PU5” here?
**A.** -0.507 ± 0.11

**Q.** Which abundance fitness does the source give for “E3 ubiquitin-protein ligase NEDD4-like N213G, Q96PU5” here?
**A.** -0.326 ± 0.084

**Q.** Which abundance fitness does the source give for “E3 ubiquitin-protein ligase NEDD4-like N213K, Q96PU5” here?
**A.** -0.752 ± 0.18

**Q.** Which abundance fitness does the source give for “E3 ubiquitin-protein ligase NEDD4-like N213L, Q96PU5” here?
**A.** -0.709 ± 0.1

**Q.** For “E3 ubiquitin-protein ligase NEDD4-like N213M, Q96PU5”, which abundance fitness is on record?
**A.** -0.441 ± 0.11

**Q.** Which abundance fitness does the source give for “E3 ubiquitin-protein ligase NEDD4-like N213P, Q96PU5” here?
**A.** -0.383 ± 0.24

**Q.** Which abundance fitness does the source give for “E3 ubiquitin-protein ligase NEDD4-like N213Q, Q96PU5” here?
**A.** -0.295 ± 0.089

**Q.** Which abundance fitness does the source give for “E3 ubiquitin-protein ligase NEDD4-like N213R, Q96PU5” here?
**A.** -0.56 ± 0.069

**Q.** For “E3 ubiquitin-protein ligase NEDD4-like N213S, Q96PU5”, which abundance fitness is on record?
**A.** 0.213 ± 0.12

**Q.** Which abundance fitness does the source give for “E3 ubiquitin-protein ligase NEDD4-like N213T, Q96PU5” here?
**A.** -0.428 ± 0.1

**Q.** Which abundance fitness does the source give for “E3 ubiquitin-protein ligase NEDD4-like N213V, Q96PU5” here?
**A.** -0.88 ± 0.13

**Q.** With “E3 ubiquitin-protein ligase NEDD4-like N213W, Q96PU5” as the substance, how does the abundance fitness read?
**A.** -0.753 ± 0.1

**Q.** For “E3 ubiquitin-protein ligase NEDD4-like N213Y, Q96PU5”, which abundance fitness is on record?
**A.** -0.349 ± 0.39

**Q.** For “E3 ubiquitin-protein ligase NEDD4-like N215A, Q96PU5”, which abundance fitness is on record?
**A.** -0.029 ± 0.072

**Q.** With “E3 ubiquitin-protein ligase NEDD4-like N215C, Q96PU5” as the substance, how does the abundance fitness read?
**A.** -0.178 ± 0.084

**Q.** With “E3 ubiquitin-protein ligase NEDD4-like N215D, Q96PU5” as the substance, how does the abundance fitness read?
**A.** 0.015 ± 0.086

**Q.** With “E3 ubiquitin-protein ligase NEDD4-like N215E, Q96PU5” as the substance, how does the abundance fitness read?
**A.** -0.086 ± 0.077

**Q.** Which abundance fitness does the source give for “E3 ubiquitin-protein ligase NEDD4-like N215F, Q96PU5” here?
**A.** -0.169 ± 0.1

**Q.** For “E3 ubiquitin-protein ligase NEDD4-like N215G, Q96PU5”, which abundance fitness is on record?
**A.** -0.036 ± 0.05

**Q.** With “E3 ubiquitin-protein ligase NEDD4-like N215H, Q96PU5” as the substance, how does the abundance fitness read?
**A.** -0.031 ± 0.1

**Q.** For “E3 ubiquitin-protein ligase NEDD4-like N215I, Q96PU5”, which abundance fitness is on record?
**A.** -0.077 ± 0.084

**Q.** With “E3 ubiquitin-protein ligase NEDD4-like N215K, Q96PU5” as the substance, how does the abundance fitness read?
**A.** 0.165 ± 0.098

**Q.** For “E3 ubiquitin-protein ligase NEDD4-like N215L, Q96PU5”, which abundance fitness is on record?
**A.** -0.205 ± 0.07

**Q.** Which abundance fitness does the source give for “E3 ubiquitin-protein ligase NEDD4-like N215M, Q96PU5” here?
**A.** -0.077 ± 0.062
